The record followed here is patent US20060063208A1 (GENERAL HOSPITAL, published 2006).

The assay addresses T1, DRAGON-Fc fusion protein (DRAGON without its GPI anchor fused to the Fc portion of human IgG) (mouse; human, UniProt Q7TQ33 49-415, limits assumed).
T1 construct: Purified from stably transfected HEK293 cells; also called soluble DRAGON; not shown: Fc portion of the human IgG (vector pIgplus, R&D Systems)
T1 sequence: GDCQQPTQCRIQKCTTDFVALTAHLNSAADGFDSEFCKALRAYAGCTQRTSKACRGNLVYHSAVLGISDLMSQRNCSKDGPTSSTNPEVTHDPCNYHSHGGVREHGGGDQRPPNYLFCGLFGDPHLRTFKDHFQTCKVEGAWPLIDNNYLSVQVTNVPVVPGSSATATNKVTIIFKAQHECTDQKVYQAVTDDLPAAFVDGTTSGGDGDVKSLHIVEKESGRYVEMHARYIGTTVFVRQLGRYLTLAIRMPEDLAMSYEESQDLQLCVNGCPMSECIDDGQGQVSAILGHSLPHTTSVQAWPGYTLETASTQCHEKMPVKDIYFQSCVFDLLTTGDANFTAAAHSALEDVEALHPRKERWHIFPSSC
Nature of the assay: DRAGON-Fc with [125I]-BMP2 and increasing unlabeled BMP2, capture on protein A plates.

B1: BMP-2 (ligand, human, UniProt P12643 283-396, looked up)
chain: QAKHKQRKRLKSSCKRHPLYVDFSDVGWNDWIVAPPGYHAFYCHGECPFPLADHLNSTNHAIVQTLVNSVNSKIPKACCVPTELSAISMLYLDENEKVVLKNYQDMVVEGCGCR
modifications: iodinated with 125I where used as tracer
B1 registered a dissociation constant (Kd) of 1.5 nM.
